Target: nDARC(Y)-Fc: N-terminal 60 residues of human DARC (FyB) with tyrosine at position 41, fused to the Fc region of human IgG1 (human) (UniProt Q16570)
Assay: BLI; nDARC(Y)-Fc immobilised via its Fc on Anti-human IgG Fc Capture biosensors (20 ug/ml, 600 s); PvDBPII 1-120 nM; 25 C; PBS with 1 mg/ml BSA; reference biosensors with human IgG1 Fc subtracted; 1:2 binding model and steady-state analysis; mean of two experiments

| Substance | Kd [µM] |
| --- | --- |
| Recombinant Plasmodium vivax Duffy Binding Protein region II, variant Salvador I (PvDBPII SalI) (from UniProt P22290 211-525) (domain or fragment) | 0.0088 |
| Recombinant Plasmodium vivax Duffy Binding Protein region II, variant PvW1 (PvDBPII PvW1) (from UniProt P22290 211-525) (domain or fragment) | 0.012 |
